The text below walks through data of publication PMC7320144 (Nature Communications, 2020).

In series [1] the target is PfISN1 D172N (full-length inactive mutant) (Plasmodium falciparum). The series can be described thus: crystal structure.
The target in series [2] is PfISN1 D172N-ΔN30 (Plasmodium falciparum). The series can be described thus: crystal structure.
Series [3] relates to O=[N+]([O-])c1ccc(OP(=O)(O)O)cc1. Briefly: purified protein. The format is biochemical, Plasmodium falciparum. The conditions noted are these: Mg2+; 25.0 °C.
The target in series [4] is T1, PfISN1 (IMP-specific nucleotidase 1) (Plasmodium falciparum, UniProt A0A144A134).
T1 construct: gene ISN1; wild-type, full-length
Briefly: crystal structure; enzyme activation at pH […]. Format: biochemical.

Series [5] concerns the molecule itself. Briefly: crystal structure; vapour diffusion in sitting drops at 292 K; protein 13 mg/mL in 50 mM Tris-HCl pH 8.0, 100 mM NaCl (or 50 mM MES pH 5.0, 100 mM NaCl); apo, ATP-bound or IMP-Mg2+-bound forms; homo-tetramer.

The term stoichiometry N denotes the number of molecules, sites or subunits per partner or assembly. As for “PfISN1 D172N (full-length inactive mutant) (from UniProt A0A144A134 1-444) (enzyme)”, the stoichiometry N in series [1] amounted to 4.
As for “PfISN1 D172N-ΔN30 (from UniProt A0A144A134 31-444) (domain or fragment)”, the stoichiometry N in series [2] amounted to 4.
As usually defined, the Km is the substrate concentration at which the rate is half of its maximum. By kcat is commonly meant the number of substrate molecules converted per active site and unit of time at saturation. One may read the kcat/Km as the turnover number divided by the Michaelis constant. For “PfISN1 (IMP-specific nucleotidase 1) (Plasmodium falciparum 3D7; D172N)”, in series [3], the Michaelis-Menten constant (Km) amounted to 1510 ± 150 µM, the turnover number (kcat) amounted to 0.28 ± 0.01 s⁻¹ and the catalytic efficiency (kcat/Km) worked out at 190 ± 20 M⁻¹ s⁻¹.
The term EC50 denotes the concentration at which the effect is half-maximal. On to `Nc1ncnc2c1ncn2[C@@H]1O[C@H](COP(=O)(O)OP(=O)(O)OP(=O)(O)O)[C@@H](O)[C@H]1O` [ATP], for which the response in series [4] was half-maximal at 3.8 ± 0.7 mM (EC50).

B1: PfISN1-ΔN59 (domain or fragment, Plasmodium falciparum, UniProt A0A144A134 60-444, looked up)
chain: DSLIMFLVEIFRSLFVSNCIDKNIDNVLLSIEEMFIDHYYNPQHSRLKYLIDDVGIFFTKLPITKAFHTYNKKYRITKRLYAPPTFNEVRHILNLAQILSLEEGLDLLTFDADETLYPDGHDFNDEVLASYISCLLKKMNIAIVTAASYNNDAEKYQKRLENLLKYFSKHNIKDGSYKNFYVMGGESNYLFKCNEEATLYSVPENEWRHYKKFVDYDTVQEILNISEKCLEKVIKDFGLCAQIQRKEKSIGLVPNKIPSLNIKNEQKNYMIKYEVLEEAVIRIKKEIIKNKITAPYCAFNGGQDLWVDVGNKAEGLLILQKLLKIQKKKCCHIGDQFLHSGNDFPTRFCSLTLWVSNPQETKACLKSIMHLNIKSFIPEVLYENQ
notes: PfISN1 (444 amino acids, gene PF3D7_1206100) with the N-terminal regulatory domain (NTRD, M1 to K59) deleted; limits worked out from the name ΔN59 and the printed domain limits; Co-crystallized with IMP, IMP not observed in the structure; Construct details are in Supplementary Methods; also called ∆N59-truncated PfISN1; source: E. coli BL21-CodonPlus (DE3)-RIL (structural studies), purified
For the molecule B1, in series [5], the “stoichiometry N” value stood at 4.

B2: PfISN1-ΔC10 (domain or fragment, Plasmodium falciparum, UniProt A0A144A134 1-434, looked up)
chain: MKNLDINTFDNIEDIPLGSSEQDPYDFFTLSDRNVMNSDMKKNIVQWNSRYSYNQLKNKDSLIMFLVEIFRSLFVSNCIDKNIDNVLLSIEEMFIDHYYNPQHSRLKYLIDDVGIFFTKLPITKAFHTYNKKYRITKRLYAPPTFNEVRHILNLAQILSLEEGLDLLTFDADETLYPDGHDFNDEVLASYISCLLKKMNIAIVTAASYNNDAEKYQKRLENLLKYFSKHNIKDGSYKNFYVMGGESNYLFKCNEEATLYSVPENEWRHYKKFVDYDTVQEILNISEKCLEKVIKDFGLCAQIQRKEKSIGLVPNKIPSLNIKNEQKNYMIKYEVLEEAVIRIKKEIIKNKITAPYCAFNGGQDLWVDVGNKAEGLLILQKLLKIQKKKCCHIGDQFLHSGNDFPTRFCSLTLWVSNPQETKACLKSIMHLNIKS
notes: PfISN1 (444 amino acids, gene PF3D7_1206100) truncated by ten residues at the C-terminus; Construct details are in Supplementary Methods; also called ∆C10-truncated PfISN1; source: E. coli BL21-CodonPlus (DE3)-RIL (structural studies), purified
Consider B2, for which the “stoichiometry N” value in series [5] worked out at 4.

B3: Plasmodium falciparum IMP-specific nucleotidase 1 (PfISN1), wild type (enzyme, UniProt A0A144A134 1-444, looked up)
chain: MKNLDINTFDNIEDIPLGSSEQDPYDFFTLSDRNVMNSDMKKNIVQWNSRYSYNQLKNKDSLIMFLVEIFRSLFVSNCIDKNIDNVLLSIEEMFIDHYYNPQHSRLKYLIDDVGIFFTKLPITKAFHTYNKKYRITKRLYAPPTFNEVRHILNLAQILSLEEGLDLLTFDADETLYPDGHDFNDEVLASYISCLLKKMNIAIVTAASYNNDAEKYQKRLENLLKYFSKHNIKDGSYKNFYVMGGESNYLFKCNEEATLYSVPENEWRHYKKFVDYDTVQEILNISEKCLEKVIKDFGLCAQIQRKEKSIGLVPNKIPSLNIKNEQKNYMIKYEVLEEAVIRIKKEIIKNKITAPYCAFNGGQDLWVDVGNKAEGLLILQKLLKIQKKKCCHIGDQFLHSGNDFPTRFCSLTLWVSNPQETKACLKSIMHLNIKSFIPEVLYENQ
notes: IMP-specific 5'-nucleotidase 1 (ISN1, EC 3.1.3.99) of Plasmodium falciparum, 444 amino acids, gene PF3D7_1206100; domains M1-K59 (NTRD), D60-T143 (OD), F144-K270 and K371-Q444 (CD), K271-N370 (cap); Cloned into pET-21bN; details of constructs and of purification for structural studies are in Supplementary Methods; A selenomethionine derivative (E. coli B834 (DE3)) was used for phasing; also …
In the case of B3, the “stoichiometry N” value in series [5] amounted to 4.
